Assay results from US20090104177A1, “PEPTIDES FOR INHIBITING THE INTERACTION OF PROTEIN KINASE A AND PROTEIN KINASE A ANCHOR PROTEINS” (FORSCHUNGSVERBUND BERLIN E.V., priority 2004, published 2009).
No end group written: not given here.

Assays:
human RIIα subunits = human RIIα subunits (Homo sapiens, UniProt P13861); test: Surface plasmon resonance measurement of peptide binding to RIIα
RIIβ subunits from rats = RIIβ subunits from rats (Rattus norvegicus, UniProt P12369); test: Surface plasmon resonance measurement of peptide binding to RIIβ
RII subunits of the PKAs = test: Summary statement on RII binding of AKAP18δ-derived negative control peptides; conditions: negative controls; in words
Source text: They have in common that binding is no longer present due to structural differences (1, 2) or differences in charge (3, 4).

[1] = target: T1, regulatory RIIα subunits of PKA (Homo sapiens, UniProt P13861); test: RII overlay of membrane-bound (SPOT) peptides, radiolabelled RIIα as probe, densitometry; assay type: binding; conditions: for binding to RIIα subunits in RII overlay: human RIIα as probe, in words
T1 construct: Prof; Dr. Friedrich W. Herberg, University of Kassel, Germany (obtained from an academic laboratory, not a vendor)
Source text: (§1) Peptide libraries were synthesized by means of automatic SPOT synthesis on Whatman 50 cellulose membranes according to standard protocols using Fmoc chemistry and AutoSpot Robot ATE 222 (Intavis Bioanalytical Instruments AG, Cologne). The protective groups of the amino acid side chains were removed using a mixture of trifluoroacetic acid (TFA) in dichloromethane (DCM) (Frank, 1992; Kramer and Schneider-Mergener, 1998). For control, spots (about 50 nmol of peptide per spot) were cut from the cellulose membrane, removed from the membrane by treatment with 0.05 M NaOH, and analyzed using HPLC and MALDI-TOF mass spectrometry.
(§2) • 1. Regulatory RIIα (human) and RIIβ (rat) subunits of PKA, obtained from Prof. Dr. Friedrich W. Herberg, University of Kassel, Germany. • 2. Catalytic subunits of PKA, Promega, Mannheim, Germany, Order No. V5161 • 3. [γ-^32P]ATP, 5000 Ci/mmol, Amersham Biosciences, Brunswick, Germany, Order No. AA0018 • 4. Sephadex G 50, medium Pharmacia, Order No. 17-0043-01 • 5. Phosphate-buffered saline (PBS)
(§3) The ATP concentration was adjusted to 10 μM by addition of non-radioactive ATP (addition of 5 μl of a 1 mM solution). The batch was incubated on ice for another 50 min.
(§4) The reaction was quenched by adding dextran blue and removing free nucleotides. The free ATP was removed on a Sephadex G50 column.
(§5) Non-incorporated nucleotides were separated from the RII subunits by fractionation on Sephadex G 50 columns. • 1. Swelling of the Sephadex G 50 material: 20 g thereof was allowed to swell in 400 ml of PBS at room temperature overnight. Non-settled material was subsequently removed with a Pasteur pipette. The swollen material was aliquoted in 50 ml Falcon tubes and stored at 4° C. For preservation, sodium azide was added to make a final concentration of 0.01%. • 2. The material was poured into a 10 ml sterile disposable pipette sealed with a glass sphere. To settle the column bed, 50 ml of PBS containing 1 mg/ml BSA (bovine serum albumin) was allowed to pass.
(§6) Until used, the column was sealed with parafilm at the top thereof. • 3. The labelled RII subunits (500 μl), together with dextran blue (70 μl of a 20 mg/ml solution), were applied on the column (overall volume=570 μl). • 4. The sample was allowed to migrate into the matrix, followed by filling up with PBS. • 5. A short time before the dextran blue was eluted, collection of fractions was begun (2 fractions of 1.5 ml each, the other fractions 1 ml each). • 6. To determine the incorporation of ^32P, 1% (5.7 μl) of sample upstream of the column (corresponding to 1% of the radioactivity employed) and 3 μl of each fraction were used. • 7. The fractions of the first peak including the probe were combined. The incorporation rate in % was calculated and the specific activity (cpm/μg of protein) was determined.
(§7) • 1. The proteins (40 μg) were separated by means of SDS-PAGE and transferred on a PVDF membrane (PVDF: polyvinylidene fluoride) using a semi-dry electroblotting procedure. The membrane-associated proteins were stained with Ponceau S in order to identify the marker proteins on the membrane. Destaining was effected using TBS. • 2. The membrane was incubated in Blotto/BSA at 4° C. for 16 hours:
(§8) • 3. Blotto/BSA was replaced with fresh one and ^32P-labelled RII subunits were added (10^5 cpm/ml). This was incubated for 4-6 h at room temperature. • 4. The membrane was washed for 4×15 min in Blotto/BSA and for 2×10 min in 10 mM potassium phosphate buffer, pH 7.4, 0.15 M NaCl. • 5. RII-binding proteins were detected by exposition on a phosphoimager plate.
(§9) Identification of AKAP18δ-derived peptides inhibiting the interaction of AKAP proteins with the regulatory RIIα and RIIβ subunits of PKA. A: Peptides derived from the PKA binding domain of AKAP18δ were synthesized on two membranes. The membranes were incubated with radiolabelled regulatory RIIα (upper row) or RIIβ subunits (row below) of the PKA (RII overlay experiment). […]

[2] = target: T2, regulatory RIIβ subunits of PKA (Rattus norvegicus, UniProt P12369); test: RII overlay of membrane-bound (SPOT) peptides, radiolabelled RIIβ as probe, densitometry; assay type: binding; conditions: in words
T2 construct: Prof; Dr. Friedrich W. Herberg, University of Kassel, Germany (obtained from an academic laboratory, not a vendor)
Source text: as §1, §2, §3, §4, §5, §6, §7, §8, §9

[3] = target: T3, regulatory RIIα subunit of PKA (human) (human, UniProt P13861 1-404, 32P-labelled with the catalytic subunit of PKA when used as probe in the RII overlay experiments); test: RII overlay: SPOT peptide on membrane, 32P-labelled RIIα probe, phosphoimager, densitometry as % of AKAP18δ-wt
T3 construct: Radiolabelled probe in RII overlays; format in the surface plasmon resonance measurements is not described; also called human RIIα

[4] = target: T4, regulatory RIIβ subunit of PKA (rat) (rat, UniProt P12369 1-416, 32P-labelled with the catalytic subunit of PKA when used as probe in the RII overlay experiments); test: RII overlay: SPOT peptide on membrane, 32P-labelled RIIβ probe, phosphoimager, densitometry as % of AKAP18δ-wt
T4 construct: Radiolabelled probe in RII overlays; format in the surface plasmon resonance measurements is not described; also called RIIβ subunit of PKA from rats

[5] = target: T3, regulatory RIIα subunit of PKA (human); test: RII overlay on SPOT membrane with radiolabelled RIIα
[6] = target: T4, regulatory RIIβ subunit of PKA (rat); test: RII overlay on SPOT membrane with radiolabelled RIIβ
[7] = target: T4, regulatory RIIβ subunit of PKA (rat); test: surface plasmon resonance

Sequence of RIIβ subunits from rats (P12369 whole entry): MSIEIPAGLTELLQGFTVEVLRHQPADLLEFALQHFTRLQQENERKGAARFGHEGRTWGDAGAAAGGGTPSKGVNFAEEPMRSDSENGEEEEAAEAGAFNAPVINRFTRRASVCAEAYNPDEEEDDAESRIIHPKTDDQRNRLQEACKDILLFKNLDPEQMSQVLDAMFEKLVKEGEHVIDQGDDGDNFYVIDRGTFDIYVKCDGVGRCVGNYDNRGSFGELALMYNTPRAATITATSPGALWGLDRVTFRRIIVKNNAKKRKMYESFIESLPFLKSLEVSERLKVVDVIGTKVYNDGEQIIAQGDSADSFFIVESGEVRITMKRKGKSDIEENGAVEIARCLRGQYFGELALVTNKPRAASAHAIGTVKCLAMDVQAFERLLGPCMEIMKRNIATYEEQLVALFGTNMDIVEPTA
T4 sequence (P12369 whole entry): as above
T2 sequence (P12369 whole entry): as above
T1 sequence (P13861 whole entry): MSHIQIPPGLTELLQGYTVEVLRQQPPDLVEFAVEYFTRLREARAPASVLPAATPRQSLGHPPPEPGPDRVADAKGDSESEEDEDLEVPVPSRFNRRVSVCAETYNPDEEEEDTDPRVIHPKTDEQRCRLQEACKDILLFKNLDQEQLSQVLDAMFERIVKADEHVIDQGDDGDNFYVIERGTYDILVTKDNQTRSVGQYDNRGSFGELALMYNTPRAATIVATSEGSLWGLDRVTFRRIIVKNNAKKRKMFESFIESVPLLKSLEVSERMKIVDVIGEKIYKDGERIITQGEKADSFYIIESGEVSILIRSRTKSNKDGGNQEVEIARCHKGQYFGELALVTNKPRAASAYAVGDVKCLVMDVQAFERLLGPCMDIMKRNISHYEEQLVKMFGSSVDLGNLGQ
Sequence of human RIIα subunits (P13861 whole entry): as above
T3 sequence (P13861 whole entry): as above

Row | Molecule | binding result [3] | binding result [4] | also measured
1 | PEDAELVRLSKRLPENAPLKAVQQY [AKAP18δ-PP] |  |  | RIIα binding KD (human RIIα subunits): no binding; RIIβ binding KD (RIIβ subunits from rats): no binding; binding of RII subunits of the PKAs (RII subunits of the PKAs): absent binding
2 | ANDARLVRLSKRLVENAVLKAVQQY [peptide No. 7] |  |  | difference in binding of the two PKA subunits (RIIα vs RIIβ) ([1]; RII overlay on two membranes, quantitative evaluation (FIG. 3)): marked difference
3 | ANDARLVRLSKRLRENAVLKAVQQY [A18δRIIα Hs1] |  |  | binding to RIIα subunits in RII overlay [1]: binding to RIIα
4 | PEDAELVRLSKRLPENAVLKAVQQY [AKAP18δ-P] |  |  | RIIα binding KD (human RIIα subunits): no binding; RIIβ binding KD (RIIβ subunits from rats): no binding; binding of RII subunits of the PKAs (RII subunits of the PKAs): absent binding
5 | PEDAELVRLSKRLVENAVLKAVQQY [AKAP18δ-wt] |  |  | Kd (human RIIα subunits): 0.4 to 1.5 nM; Kd (RIIβ subunits from rats): 1 to 6 nM
6 | ANDARLVRLSKRLYENAVLKAVQQY [A18δRIIα Hs2] |  |  | binding to RIIα subunits in RII overlay [1]: binding to RIIα
7 | ANDARLVRLPKRLVENAVLKAVQQY [10/12] |  |  | binding to RIIα subunits in RII overlay [1]: bind RIIα; binding to RIIβ subunits in RII overlay [2]: no RIIβ
8 | PEDAELVRLSKRDVENAVLKAVQQY [AKAP18δ-L308D] |  |  | RIIα binding KD (human RIIα subunits): no binding; RIIβ binding KD (RIIβ subunits from rats): no binding; binding to RIIα subunits in RII overlay [1]: weaker; binding to RIIβ subunits in RII overlay [2]: weaker; binding of RII subunits of the PKAs (RII subunits of the PKAs): absent binding
9 | PEDAELVRLDKRLPENAPLKAVQQY (also: phosphorylated; listed as Homo sapiens) [AKAP18δ-phos] |  |  | binding of RII subunits of the PKAs (RII subunits of the PKAs): absent binding
10 | ANDARLVRLSKRLVENAVLKFVQQY [21/4] |  |  | binding to RIIα subunits in RII overlay [1]: vice versa; binding to RIIβ subunits in RII overlay [2]: vice versa; binding to RIIβ subunits in RII overlay ([2]; listed as A18δRIIβRn1): binding to RIIβ; binding to RIIβ subunits in RII overlay ([2]; listed as A18δRIIβRnl): selectively binds RIIβ subunits
11 | ANDARLVRLNKRLVENAVLKAVQQY [10/11] |  |  | binding to RIIα subunits in RII overlay [1]: bind RIIα; binding to RIIβ subunits in RII overlay [2]: no RIIβ
12 | ANDARLVRLSKRLVENAVLKAVQQY (also called peptide 7; No. G) [peptide No. 7 (AKAP18δ-derived, FIG. 3)] | binds | binds | 
13 | ANDAKTERLSQRLVENAVLKAVQQY (AKAP18δ-derived; also called No. K) [Peptide 11] | binds | binds | 
14 | ASDAKLVRLSKRLVENAVLKAVQQY (AKAP18δ-derived; also called No. D) [Peptide 4] | binds | binds | 
15 | ASDAQLVRLSKRLVENAVLKAVQQY (AKAP18δ-derived; also called No. C) [Peptide 3] | binds | binds | 
16 | ANDARLVRLNKRLVENAVLKAVQQY (Member of the substitution library of peptide 7 (row 10, peptide 11); also called peptide 10/11; No. EE) [A18δRIIαRn2 (10/11)] |  |  | binding result [5]: binds; binding result [6]: no binding
17 | ANDARLVRLSKRLRENAVLKAVQQY (Member of the substitution library of peptide 7 (row 14, peptide 14); also called No. BB) [A18δRIIαHs1 (14/14)] |  |  | binding result [5]: binds
18 | ANDARLVRLSKRLYENAVLKAVQQY (Member of the substitution library of peptide 7 (row 14, peptide 19); also called No. CC) [A18δRIIαHs2 (14/19)] |  |  | binding result [5]: binds
19 | PEDAELVRLSKRLVENAVEKAVQQY (also called AKAP18delta-L314E; No. W) [AKAP18δ-L314E] |  |  | Kd [7]: 22 nM

The next lines start with results.

Row | binding result [3] | binding result [4] | Molecule | also measured
20 | binds | binds | ASDAKTVRLSKRLVENAVLKAVQQY (AKAP18δ-derived; also called No. I) [Peptide 9] | 
21 | binds | binds | ANDAKTERLSKRLVENAVLKAVQQY (AKAP18δ-derived; also called No. J) [Peptide 10] | 
22 | binds | binds | ARDAKLVRLSKRLVENAVLKAVQQY (AKAP18δ-derived; also called No. E) [Peptide 5] | 
23 | binds | binds | ANDAKTQRLSQRLVENAVLKAVQQY (AKAP18δ-derived; also called No. L) [Peptide 12] | 
24 | binds | binds | ARDAQLVRLSKRLVENAVLKAVQQY (AKAP18δ-derived; also called No. F) [Peptide 6] | 
25 | binds | binds | ASDARLVRLSKRLVENAVLKAVQQY (AKAP18δ-derived; also called No. H) [Peptide 8] | 
26 | binds | binds | PEDAELVRLSKRLVENAVKNGAQDY (AKAP18δ-derived; also called No. S) [Peptide 19] | 
27 | binds | binds | PEDAELVRLSKRLVENAVKNGNQQY (AKAP18δ-derived; also called No. R) [Peptide 18] | 
28 | binds | binds | PEDAELVRLSKRLVENAVLNGQQQY (AKAP18δ-derived; also called No. P) [Peptide 16] | 
29 | binds | binds | PEDAELVRLSKRLVENAVLQAVQQY (AKAP18δ-derived; also called No. N) [Peptide 14] | 
30 | binds | binds | PEDAELVRLSKRLVENAVLNGNQQY (AKAP18δ-derived; also called No. Q) [Peptide 17] | 
31 | binds | binds | PEDAELVRLSKRLVENAVLNGVQQY (AKAP18δ-derived; also called No. O) [Peptide 15] | 
